Reference: patent publication US20160298117, “PEANUT-BINDING NUCLEIC ACID MOLECULE AND USE THEREOF” (NEC Solution Innovators, Ltd., published 2016)

Experiments:
[1] = molecular target: T1, Ara h1 (heat-denatured, purified from parboiled peanut) (Arachis hypogaea, UniProt P43238 P43238:26-626); test: SPR; very high binding; conditions: tags: INDOOR biotechnologies NA-AH1-1
T1 sequence: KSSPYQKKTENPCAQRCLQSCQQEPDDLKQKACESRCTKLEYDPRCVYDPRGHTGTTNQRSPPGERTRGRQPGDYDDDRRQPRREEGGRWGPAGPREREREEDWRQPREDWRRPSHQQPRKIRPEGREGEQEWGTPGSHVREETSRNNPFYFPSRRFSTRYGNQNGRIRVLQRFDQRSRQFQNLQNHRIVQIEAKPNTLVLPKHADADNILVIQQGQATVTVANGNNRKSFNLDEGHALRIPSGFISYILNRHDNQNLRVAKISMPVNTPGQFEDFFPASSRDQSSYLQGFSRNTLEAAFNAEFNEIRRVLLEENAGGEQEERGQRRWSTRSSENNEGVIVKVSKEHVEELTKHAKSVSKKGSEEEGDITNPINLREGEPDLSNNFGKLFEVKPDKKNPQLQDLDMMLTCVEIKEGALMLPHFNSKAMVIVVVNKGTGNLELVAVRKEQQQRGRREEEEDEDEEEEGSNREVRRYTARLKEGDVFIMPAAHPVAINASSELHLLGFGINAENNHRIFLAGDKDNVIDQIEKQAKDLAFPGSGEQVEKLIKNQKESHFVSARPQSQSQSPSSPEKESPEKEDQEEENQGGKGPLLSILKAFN
Protocol: (§1) First, as a sensor chip designed specifically for the ProteON, a streptavidin-immobilized chip (trade name: ProteOn NLC Sensor Chip, BioRad) was set in the ProteON XPR36. Biotinylated poly(dT) at 5 μmol/L was injected to a flow cell of the sensor chip using ultrapure water (DDW), and the binding was allowed to proceed until the signal intensity (RU: Resonance Unit) reached about 900 RU. The biotinylated poly(dT) was prepared by biotinylating the 5′ end of 24-mer deoxythymidine. Then, the poly(dA)-added aptamer at 1 μmol/L was injected to the flow cell of the chip using an SPR buffer at a flow rate of 25 μL/min for 80 seconds, and the binding was allowed to proceed until the signal intensity reached about 800 RU. […] Subsequently, the sample was injected using the SPR buffer at a flow rate of 50 μL/min for 120 seconds, followed by washing performed by flowing the SPR buffer under the same conditions. Signal intensity measurement was performed concurrently with the injection of the sample and the washing with the SPR buffer.
(§2) Except that the following eight types of aptamers were used as pyrimidine-rich aptamers, the binding forces to Ara h1, heat-denatured peanut proteins, undenatured β-conglycinin, and heat-denatured soybean proteins were examined by SPR in the same manner as in the above-described examples.

[2] = molecular target: T2, beta-conglycinin (undenatured) (Glycine max, UniProt P0DO16;P11827;P25974 P0DO16:63-605,P11827:63-621,P25974:24-439); test: SPR; little binding; conditions: tags: Sigma C5868-5GM
Protocol: as §1, §2

[3] = molecular target: T2, beta-conglycinin (undenatured); test: SPR; little binding, 18.75-300 nM; conditions: tags: Sigma C5868-5GM
Protocol: as §1
(§3) The concentrations of the β-conglycinin were set to 18.75, 37.5, 75, 150, and 300 nmol/L, and the protein concentrations in the soybean samples were set to 1, 3, 10, 30, and 100 ppm. The SPR analysis was performed in the same manner as in Example 1, except that these samples were used. Then, from the results of the above-described SPR analysis, the relative binding value was determined regarding the proteins in each peanut sample bound to the aptamer immobilized on the chip. The relative binding value was calculated as the ratio of the protein binding measured value to the aptamer immobilization measured value (the protein binding measured value/the aptamer immobilization measured value).

[4] = molecular target: T3, conarachin (undenatured) (Arachis hypogaea, UniProt P43238 P43238:26-626); test: SPR; same SPR buffer; conditions: tags: COSMO BIO CSB-CSB-NP003601PL
T3 sequence: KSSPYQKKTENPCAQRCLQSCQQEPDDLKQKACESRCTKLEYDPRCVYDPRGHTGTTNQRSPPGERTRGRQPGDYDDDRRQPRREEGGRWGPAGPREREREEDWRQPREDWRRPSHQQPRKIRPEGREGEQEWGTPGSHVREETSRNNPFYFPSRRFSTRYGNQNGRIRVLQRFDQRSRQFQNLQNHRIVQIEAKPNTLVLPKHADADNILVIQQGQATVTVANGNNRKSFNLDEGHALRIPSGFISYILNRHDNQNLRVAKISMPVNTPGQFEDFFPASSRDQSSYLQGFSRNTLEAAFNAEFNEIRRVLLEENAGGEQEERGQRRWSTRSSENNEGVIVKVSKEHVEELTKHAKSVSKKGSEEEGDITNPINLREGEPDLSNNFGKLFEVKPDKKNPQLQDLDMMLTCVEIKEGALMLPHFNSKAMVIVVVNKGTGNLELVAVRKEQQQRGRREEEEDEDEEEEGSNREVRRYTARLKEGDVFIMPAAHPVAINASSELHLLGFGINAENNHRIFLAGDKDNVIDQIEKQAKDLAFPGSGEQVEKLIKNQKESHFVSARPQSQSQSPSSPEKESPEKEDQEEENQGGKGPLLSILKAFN
Protocol: (§4) First, as a sensor chip designed specifically for the ProteON, a streptavidin-immobilized chip (trade name: ProteOn NLC Sensor Chip, BioRad) was set in the ProteON XPR36. Biotinylated poly(dT) at 5 μmol/L was injected to a flow cell of the sensor chip using ultrapure water (DDW), and the binding was allowed to proceed until the signal intensity (RU: Resonance Unit) reached about 900 RU. The biotinylated poly(dT) was prepared by biotinylating the 5′ end of 24-mer deoxythymidine. Then, the poly(dA)-added aptamer at 1 μmol/L was injected to the flow cell of the chip using an SPR buffer at a flow rate of 25 μL/min for 80 seconds, and the binding was allowed to proceed until the signal intensity reached about 800 RU. […]
(§5) Samples were prepared by adjusting commercially available peanut allergen conarachin (COSMO BIO, CSB-CSB-NP003601PL, Arachis hypogaea seed, Native) to 50 nmol/L, 25 nmol/L, 12.5 nmol/L, 6.25 nmol/L, and 3.125 nmol/L. The conarachin is a undenatured protein, and the conarachin generally accounts for about 17% of the total amount of peanut proteins in a peanut. The SPR analysis was carried out in the same manner as in Example 1, and the kinetic parameter was calculated from the results of the analysis.

[5] = molecular target: beta-conglycinin (heat-denatured, boiled 10 min) (Glycine max, UniProt P0DO16;P11827;P25974 P0DO16:63-605,P11827:63-621,P25974:24-439); test: SPR; little binding, 18.75-300 nM; conditions: tags: Sigma C5868-5GM
Protocol: as §1, with “Biotinylated” for “First, as a sensor chip designed specifically for the ProteON, a streptavidin-immobilized chip (trade name: ProteOn NLC Sensor Chip, BioRad) was set in the ProteON XPR36. Biotinylated”
As soybean allergen samples, undenatured β-conglycinin, heat-denatured β-conglycinin, undenatured soybean proteins, and heat-denatured soybean proteins were provided. A commercially available product (Sigma, trade name β-conglycinin from Glycine max (soybean), C5868-5GM) was used as the undenatured β-conglycinin. The heat-denatured β-conglycinin was prepared by boiling the undenatured β-conglycinin for 10 minutes and then collecting a supernatant fraction. As the undenatured soybean proteins and the heat-denatured soybean proteins, the undenatured soybean sample and the heat-denatured soybean sample in Example 1 were used.
as §3, with “chip.” for “chip. The relative binding value was calculated as the ratio of the protein binding measured value to the aptamer immobilization measured value (the protein binding measured value/the aptamer immobilization measured value).”

[6] = molecular target: T1, Ara h1 (heat-denatured, purified from …); test: SPR; 40 mM HEPES pH 7.5, 125 mM NaCl, 5 mM KCl, 1 mM MgCl2, 0.05% Tween 20; conditions: tags: INDOOR biotechnologies NA-AH1-1
Protocol: as §1
Samples were prepared by adjusting commercially available peanut allergen Ara h1 (INDOOR biotechnologies, #NA-AH1-1, Blanched peanut, crushed [Runner cultivar]) to 50 nmol/L, 25 nmol/L, 12.5 nmol/L, and 6.25 nmol/L. The Ara h1, which is purified from parboiled peanuts, is a heat-denatured protein. The SPR analysis was carried out in the same manner as in Example 1, and the kinetic parameter was calculated from the results of the analysis.

[7] = molecular target: T4, conarachin (heat-denatured, boiled 10 min) (Arachis hypogaea, UniProt P43238 P43238:26-626); test: SPR; 3.125-50 nM; superior to undenatured; conditions: tags: COSMO BIO CSB-CSB-NP003601PL
T4 sequence: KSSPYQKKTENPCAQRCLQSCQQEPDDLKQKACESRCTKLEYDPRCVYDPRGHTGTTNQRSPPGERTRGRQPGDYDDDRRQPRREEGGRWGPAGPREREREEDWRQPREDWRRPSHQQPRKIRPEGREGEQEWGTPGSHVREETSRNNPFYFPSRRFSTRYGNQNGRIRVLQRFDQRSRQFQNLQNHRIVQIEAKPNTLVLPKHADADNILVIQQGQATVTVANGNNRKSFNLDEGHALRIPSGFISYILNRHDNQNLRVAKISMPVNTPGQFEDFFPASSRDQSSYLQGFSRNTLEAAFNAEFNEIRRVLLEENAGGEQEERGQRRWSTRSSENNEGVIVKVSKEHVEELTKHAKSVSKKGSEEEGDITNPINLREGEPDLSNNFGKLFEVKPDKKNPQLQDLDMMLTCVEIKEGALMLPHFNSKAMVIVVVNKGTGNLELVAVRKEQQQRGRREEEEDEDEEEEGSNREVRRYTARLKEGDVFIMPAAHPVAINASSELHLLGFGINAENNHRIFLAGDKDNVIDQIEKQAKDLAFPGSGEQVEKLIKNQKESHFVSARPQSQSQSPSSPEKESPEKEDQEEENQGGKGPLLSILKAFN
Protocol: as §4
(§6) Samples were prepared by adjusting the undenatured conarachin to predetermined concentrations (10, 30, 100, 300, and 1000 nmol/L) and the heat-denatured conarachin to predetermined concentrations (3.125, 6.25, 12.5, 25, and 50 nmol/L). […] From the results of the above-described SPR analysis, the relative binding value was determined regarding the conarachin bound to the aptamer immobilized on the chip. The relative binding value was calculated as the ratio of the protein binding measured value to the aptamer immobilization measured value (the protein binding measured value/the aptamer immobilization measured value).

[8] = molecular target: T1, Ara h1 (heat-denatured, purified from …); test: SPR; 6.25-100 nM Ara h1; conditions: tags: INDOOR biotechnologies NA-AH1-1
Protocol: as §4
as §6, with “Ara h1 used in Example 2” for “undenatured conarachin”, “(6.25,” for “(10, 30, 100, 300, and 1000 nmol/L) and the heat-denatured conarachin to predetermined concentrations (3.125, 6.25,”, “25, 50,” for “25,”, “100” for “50”, “Ara h1” for “conarachin”

[9] = molecular target: T3, conarachin (undenatured); test: SPR; 10-1000 nM conarachin; conditions: tags: COSMO BIO CSB-CSB-NP003601PL
Protocol: as §4, §6

[10] = molecular target: T3, conarachin (undenatured); test: SPR; 40 mM HEPES pH 7.5, 125 mM NaCl, 5 mM KCl, 1 mM MgCl2, 0.05% Tween 20; conditions: tags: COSMO BIO CSB-CSB-NP003601PL
Protocol: as §4, §5

Sequence of beta-conglycinin (heat-denatured, boiled 10 min) (P0DO16 63-605, chain 1 of 3): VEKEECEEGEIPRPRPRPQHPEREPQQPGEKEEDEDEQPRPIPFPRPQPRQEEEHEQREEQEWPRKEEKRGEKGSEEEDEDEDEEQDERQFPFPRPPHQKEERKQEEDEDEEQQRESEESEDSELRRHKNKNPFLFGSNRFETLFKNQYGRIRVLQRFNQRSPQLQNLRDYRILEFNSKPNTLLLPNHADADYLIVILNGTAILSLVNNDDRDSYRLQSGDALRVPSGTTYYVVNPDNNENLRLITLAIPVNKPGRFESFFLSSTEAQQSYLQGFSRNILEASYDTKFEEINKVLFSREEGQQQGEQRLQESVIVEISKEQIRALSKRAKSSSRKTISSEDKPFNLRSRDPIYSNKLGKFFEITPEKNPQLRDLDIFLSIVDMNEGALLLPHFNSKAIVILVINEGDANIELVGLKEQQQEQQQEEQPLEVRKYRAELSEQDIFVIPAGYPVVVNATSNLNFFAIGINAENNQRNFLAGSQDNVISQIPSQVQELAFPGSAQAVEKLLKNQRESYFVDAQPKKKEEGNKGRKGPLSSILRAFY
Sequence of beta-conglycinin (heat-denatured, boiled 10 min) (P11827 63-621, chain 2 of 3): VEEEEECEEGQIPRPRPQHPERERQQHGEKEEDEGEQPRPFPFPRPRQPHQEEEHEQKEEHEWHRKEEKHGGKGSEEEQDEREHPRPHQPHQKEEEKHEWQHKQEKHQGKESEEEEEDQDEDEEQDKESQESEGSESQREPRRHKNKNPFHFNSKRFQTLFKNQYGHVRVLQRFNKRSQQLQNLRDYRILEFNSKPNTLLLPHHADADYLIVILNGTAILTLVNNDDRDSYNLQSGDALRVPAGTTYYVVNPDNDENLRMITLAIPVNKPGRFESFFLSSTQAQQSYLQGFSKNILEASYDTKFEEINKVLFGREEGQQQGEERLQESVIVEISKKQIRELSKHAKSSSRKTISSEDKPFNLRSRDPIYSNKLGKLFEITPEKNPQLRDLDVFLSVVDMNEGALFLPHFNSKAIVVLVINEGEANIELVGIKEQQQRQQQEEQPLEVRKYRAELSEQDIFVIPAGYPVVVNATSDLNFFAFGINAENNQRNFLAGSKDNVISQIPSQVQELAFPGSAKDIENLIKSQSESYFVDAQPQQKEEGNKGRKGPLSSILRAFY
Sequence of beta-conglycinin (heat-denatured, boiled 10 min) (P25974 24-439, chain 3 of 3): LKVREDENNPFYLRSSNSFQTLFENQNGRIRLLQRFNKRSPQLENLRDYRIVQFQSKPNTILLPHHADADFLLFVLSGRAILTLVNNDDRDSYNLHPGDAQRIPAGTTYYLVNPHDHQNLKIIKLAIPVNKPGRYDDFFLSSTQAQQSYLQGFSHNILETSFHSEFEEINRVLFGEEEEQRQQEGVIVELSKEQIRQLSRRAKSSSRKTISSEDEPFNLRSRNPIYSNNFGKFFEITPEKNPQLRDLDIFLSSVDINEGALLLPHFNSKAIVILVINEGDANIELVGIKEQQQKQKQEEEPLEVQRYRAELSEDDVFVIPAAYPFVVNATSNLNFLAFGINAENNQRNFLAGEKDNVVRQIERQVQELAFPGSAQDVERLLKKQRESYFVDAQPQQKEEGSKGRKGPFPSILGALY
T2 sequence (P0DO16 63-605, chain 1 of 3): as the sequence (P0DO16 63-605, chain 1 of 3) above
T2 sequence (P11827 63-621, chain 2 of 3): as the sequence (P11827 63-621, chain 2 of 3) above
T2 sequence (P25974 24-439, chain 3 of 3): as the sequence (P25974 24-439, chain 3 of 3) above

CTCTCTCTCTCTCTCTCTCTCTCTCAAAAAAAAAAAAAAAAAAAAAAAA (ssDNA) [CT25_C0]: binds [1]; no binding [2].

For CTCTCTCTCTCTCCCTCTCTCTCTCAAAAAAAAAAAAAAAAAAAAAAAA (ssDNA) [CT25_C3 (Pyrimidine rich)], the binding result [3] was “no binding”, the Kd [4] was 0.28 nM and the binding result [5] was “no binding”.

CTCTCTCTCTCCCCCCCTCTCTCTCAAAAAAAAAAAAAAAAAAAAAAAA (ssDNA) [CT25_C7]: binds [1]; no binding [2].

TTTTTTTTTTTTTTTTTTTTAAAAAAAAAAAAAAAAAAAAAAAA (ssDNA) [PolydT20] was tested, and the binding result [3] was “no binding”, the Kd [4] was 0.263 nM and the Kd [6] was 0.19 nM. TTTTTTTTTTTTTTTTTTTTAAAAAAAAAAAAAAAAAAAAAAAA (ssDNA) [PolydT20]: no binding [5].

B1: P_NES02 (CONA161R8m1s31) (ssDNA)
DNA: GAATCCGCGGGGTAGCGGTGGCGAGCGATTCAAAAAAAAAAAAAAAAAAAAAAAA
B1: no binding [3]; binds [7]; binds [8]. B1: no binding [5]; binds [9].

In the case of GTTTTCTAGGCCAATCTGATCAACAAAAAAAAAAAAAAAAAAAAAAAA (ssDNA) [P_NES04 (CONA171NNHR2R8m2s24)], the binding result [3] is reported as “no binding”, the Kd [6] is reported as 0.141 nM and the binding result [5] is reported as “no binding”.

CCCGCCTGTATTCCTGTCCAAAAAAAAAAAAAAAAAAAAAAAA (ssDNA) [P_NES01 (NAH1128R7Am2s19G)] was tested, and the binding result [3] was “no binding”, the Kd [10] was 0.259 nM and the binding result [5] was “no binding”.
